Literature values, collected in US20250282866A1, “TREATMENT OF DISEASES RELATED TO ATP-BINDING CASSETTE TRANSPORTER 1 DYSFUNCTION USING TREM2 AGONISTS” (VIGIL NEUROSCIENCE, INC., priority 2020, published 2025).
Read-outs that look alike come from different tables or passages of the source. Marks after values point to notes of the source that are not given here.

T1: human TREM2 (Homo sapiens, UniProt Q9NZC2)
T1 sequence (Q9NZC2 19-230): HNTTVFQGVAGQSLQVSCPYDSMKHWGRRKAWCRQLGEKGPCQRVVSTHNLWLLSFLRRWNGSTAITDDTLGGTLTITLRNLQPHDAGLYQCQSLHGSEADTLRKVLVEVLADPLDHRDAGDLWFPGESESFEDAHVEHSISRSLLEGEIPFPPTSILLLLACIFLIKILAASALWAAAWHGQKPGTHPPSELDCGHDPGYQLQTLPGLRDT


Biological target: T1, human TREM2
Settings: for Binding Signal (fold over 6E7 Parental antibody) 1st screen 110 nM or 10 nM: concentration 110 nM or 10 nM (footnote a not given)
[1] = values printed without asterisk

| Molecule | Binding Signal (fold over 6E7 Parental antibody) 1st screen 110 nM or 10 nM [1] | Binding Signal (fold over 6E7 Parental antibody) 2nd screen 2 nM (2nd screen) | Binding Signal (fold over 6E7 Parental antibody) 2nd screen 10 nM (2nd screen) | Binding Signal (fold over 6E7 Parental antibody) 1st screen 110 nM or 10 nM (values printed with asterisk) | Binding Signal (fold over 6E7 Parental antibody) 2nd screen 100 nM (2nd screen, 100 nM) |
| --- | --- | --- | --- | --- | --- |
| V85: 6E7 variant: VH T30R, I50T, Q99S; VL L54R (antibody, V domains shown) VH: EVQLVQSGAEVKKPGESLKISCKGSGYSFRSYWIAWVRQMPGKGLEWMGTIYPGDSDTRYSPSFQGQVTISADKSISTAYLQWSSLKASDTAMYFCARSRTFYYDSSDYFDYWGQGTLVTVSS VL: DIQMTQSPSSVSASVGDRVTITCRASQGISSWLAWYQQKPGKAPKLLIYAASSRQNGVPSRFSGSGSGTDFTLTISSLQPEDFATYFCQQADSFPRTFGQGTKLEIK | 5.41 fold over 6E7 Parental antibod | 5.41 fold over 6E7 Parental antibod | 5.37 fold over 6E7 Parental antibod |  |  |
| V25: 6E7 variant: VH T30G, I50L, Q99S; VL Q55A, F94M (antibody, V domains shown) VH: EVQLVQSGAEVKKPGESLKISCKGSGYSFGSYWIAWVRQMPGKGLEWMGLIYPGDSDTRYSPSFQGQVTISADKSISTAYLQWSSLKASDTAMYFCARSRTFYYDSSDYFDYWGQGTLVTVSS VL: DIQMTQSPSSVSASVGDRVTITCRASQGISSWLAWYQQKPGKAPKLLIYAASSLANGVPSRFSGSGSGTDFTLTISSLQPEDFATYFCQQADSMPRTFGQGTKLEIK | 4.23 fold over 6E7 Parental antibod | 3.15 fold over 6E7 Parental antibod | 4.70 fold over 6E7 Parental antibod |  |  |
| V15: 6E7 variant: VH T30A, I50T, Q99S; VL S53W, F94Y (antibody, V domains shown) VH: EVQLVQSGAEVKKPGESLKISCKGSGYSFASYWIAWVRQMPGKGLEWMGTIYPGDSDTRYSPSFQGQVTISADKSISTAYLQWSSLKASDTAMYFCARSRTFYYDSSDYFDYWGQGTLVTVSS VL: DIQMTQSPSSVSASVGDRVTITCRASQGISSWLAWYQQKPGKAPKLLIYAASWLQNGVPSRFSGSGSGTDFTLTISSLQPEDFATYFCQQADSYPRTFGQGTKLEIK | 5.23 fold over 6E7 Parental antibod | 4.72 fold over 6E7 Parental antibod | 4.78 fold over 6E7 Parental antibod |  |  |
| V17: 6E7 variant: VH T30G, Q99S; VL L54R, F94S (antibody, V domains shown) VH: EVQLVQSGAEVKKPGESLKISCKGSGYSFGSYWIAWVRQMPGKGLEWMGIIYPGDSDTRYSPSFQGQVTISADKSISTAYLQWSSLKASDTAMYFCARSRTFYYDSSDYFDYWGQGTLVTVSS VL: DIQMTQSPSSVSASVGDRVTITCRASQGISSWLAWYQQKPGKAPKLLIYAASSRQNGVPSRFSGSGSGTDFTLTISSLQPEDFATYFCQQADSSPRTFGQGTKLEIK | 5.37 fold over 6E7 Parental antibod | 4.22 fold over 6E7 Parental antibod | 5.51 fold over 6E7 Parental antibod |  |  |
| V24: 6E7 variant: VH T58V, Q99S; VL N56K, R96H (antibody, V domains shown) VH: EVQLVQSGAEVKKPGESLKISCKGSGYSFTSYWIAWVRQMPGKGLEWMGIIYPGDSDVRYSPSFQGQVTISADKSISTAYLQWSSLKASDTAMYFCARSRTFYYDSSDYFDYWGQGTLVTVSS VL: DIQMTQSPSSVSASVGDRVTITCRASQGISSWLAWYQQKPGKAPKLLIYAASSLQKGVPSRFSGSGSGTDFTLTISSLQPEDFATYFCQQADSFPHTFGQGTKLEIK | 2.64 fold over 6E7 Parental antibod | 1.42 fold over 6E7 Parental antibod | 2.90 fold over 6E7 Parental antibod |  |  |
| V88: 6E7 variant: VH T30G; VL S53R, N56R, F94S (antibody, V domains shown) VH: EVQLVQSGAEVKKPGESLKISCKGSGYSFGSYWIAWVRQMPGKGLEWMGIIYPGDSDTRYSPSFQGQVTISADKSISTAYLQWSSLKASDTAMYFCARQRTFYYDSSDYFDYWGQGTLVTVSS VL: DIQMTQSPSSVSASVGDRVTITCRASQGISSWLAWYQQKPGKAPKLLIYAASRLQRGVPSRFSGSGSGTDFTLTISSLQPEDFATYFCQQADSSPRTFGQGTKLEIK | 4.92 fold over 6E7 Parental antibod | 5.57 fold over 6E7 Parental antibod | 5.30 fold over 6E7 Parental antibod |  |  |
| V14: 6E7 variant: VH T30G, S56Q, Q99G; VL S53R (antibody, V domains shown) VH: EVQLVQSGAEVKKPGESLKISCKGSGYSFGSYWIAWVRQMPGKGLEWMGIIYPGDQDTRYSPSFQGQVTISADKSISTAYLQWSSLKASDTAMYFCARGRTFYYDSSDYFDYWGQGTLVTVSS VL: DIQMTQSPSSVSASVGDRVTITCRASQGISSWLAWYQQKPGKAPKLLIYAASRLQNGVPSRFSGSGSGTDFTLTISSLQPEDFATYFCQQADSFPRTFGQGTKLEIK | 4.71 fold over 6E7 Parental antibod | 2.57 fold over 6E7 Parental antibod | 4.64 fold over 6E7 Parental antibod |  |  |
| V16: 6E7 variant: VH F29M, S56G, Q99S; VL S53N (antibody, V domains shown) VH: EVQLVQSGAEVKKPGESLKISCKGSGYSMTSYWIAWVRQMPGKGLEWMGIIYPGDGDTRYSPSFQGQVTISADKSISTAYLQWSSLKASDTAMYFCARSRTFYYDSSDYFDYWGQGTLVTVSS VL: DIQMTQSPSSVSASVGDRVTITCRASQGISSWLAWYQQKPGKAPKLLIYAASNLQNGVPSRFSGSGSGTDFTLTISSLQPEDFATYFCQQADSFPRTFGQGTKLEIK | 4.01 fold over 6E7 Parental antibod | 3.57 fold over 6E7 Parental antibod | 4.04 fold over 6E7 Parental antibod |  |  |
| V90: 6E7 variant: VH Y32E; VL S31R (antibody, V domains shown) VH: EVQLVQSGAEVKKPGESLKISCKGSGYSFTSEWIAWVRQMPGKGLEWMGIIYPGDSDTRYSPSFQGQVTISADKSISTAYLQWSSLKASDTAMYFCARQRTFYYDSSDYFDYWGQGTLVTVSS VL: DIQMTQSPSSVSASVGDRVTITCRASQGISRWLAWYQQKPGKAPKLLIYAASSLQNGVPSRFSGSGSGTDFTLTISSLQPEDFATYFCQQADSFPRTFGQGTKLEIK |  |  |  | 0.33* fold over 6E7 Parental antibod | 0.36 fold over 6E7 Parental antibod |
| V86: 6E7 variant: VH T30G, I34L, Q65E, Q99S; VL L54R (antibody, V domains shown) VH: EVQLVQSGAEVKKPGESLKISCKGSGYSFGSYWLAWVRQMPGKGLEWMGIIYPGDSDTRYSPSFEGQVTISADKSISTAYLQWSSLKASDTAMYFCARSRTFYYDSSDYFDYWGQGTLVTVSS VL: DIQMTQSPSSVSASVGDRVTITCRASQGISSWLAWYQQKPGKAPKLLIYAASSRQNGVPSRFSGSGSGTDFTLTISSLQPEDFATYFCQQADSFPRTFGQGTKLEIK | 4.80 fold over 6E7 Parental antibod | 5.17 fold over 6E7 Parental antibod | 5.02 fold over 6E7 Parental antibod |  |  |
| V13: 6E7 variant: VH T30G, P62A, Q99G; VL N56G, F94M (antibody, V domains shown) VH: EVQLVQSGAEVKKPGESLKISCKGSGYSFGSYWIAWVRQMPGKGLEWMGIIYPGDSDTRYSASFQGQVTISADKSISTAYLQWSSLKASDTAMYFCARGRTFYYDSSDYFDYWGQGTLVTVSS VL: DIQMTQSPSSVSASVGDRVTITCRASQGISSWLAWYQQKPGKAPKLLIYAASSLQGGVPSRFSGSGSGTDFTLTISSLQPEDFATYFCQQADSMPRTFGQGTKLEIK | 1.31 fold over 6E7 Parental antibod | 1.15 fold over 6E7 Parental antibod | 1.35 fold over 6E7 Parental antibod |  |  |
| V87: 6E7 variant: VH T30R, T58V, S63D, Q99S; VL N56W (antibody, V domains shown) VH: EVQLVQSGAEVKKPGESLKISCKGSGYSFRSYWIAWVRQMPGKGLEWMGIIYPGDSDVRYSPDFQGQVTISADKSISTAYLQWSSLKASDTAMYFCARSRTFYYDSSDYFDYWGQGTLVTVSS VL: DIQMTQSPSSVSASVGDRVTITCRASQGISSWLAWYQQKPGKAPKLLIYAASSLQWGVPSRFSGSGSGTDFTLTISSLQPEDFATYFCQQADSFPRTFGQGTKLEIK | 3.84 fold over 6E7 Parental antibod | 4.86 fold over 6E7 Parental antibod | 3.93 fold over 6E7 Parental antibod |  |  |
